# Biological target: T1, c-Ret (RET receptor tyrosine kinase) on NB41A3-mRL3 cells (UniProt P35546 29-1115, limits assumed)
# Assay: cell-based or functional assay
# T1 sequence (P35546 29-1115 limits assumed): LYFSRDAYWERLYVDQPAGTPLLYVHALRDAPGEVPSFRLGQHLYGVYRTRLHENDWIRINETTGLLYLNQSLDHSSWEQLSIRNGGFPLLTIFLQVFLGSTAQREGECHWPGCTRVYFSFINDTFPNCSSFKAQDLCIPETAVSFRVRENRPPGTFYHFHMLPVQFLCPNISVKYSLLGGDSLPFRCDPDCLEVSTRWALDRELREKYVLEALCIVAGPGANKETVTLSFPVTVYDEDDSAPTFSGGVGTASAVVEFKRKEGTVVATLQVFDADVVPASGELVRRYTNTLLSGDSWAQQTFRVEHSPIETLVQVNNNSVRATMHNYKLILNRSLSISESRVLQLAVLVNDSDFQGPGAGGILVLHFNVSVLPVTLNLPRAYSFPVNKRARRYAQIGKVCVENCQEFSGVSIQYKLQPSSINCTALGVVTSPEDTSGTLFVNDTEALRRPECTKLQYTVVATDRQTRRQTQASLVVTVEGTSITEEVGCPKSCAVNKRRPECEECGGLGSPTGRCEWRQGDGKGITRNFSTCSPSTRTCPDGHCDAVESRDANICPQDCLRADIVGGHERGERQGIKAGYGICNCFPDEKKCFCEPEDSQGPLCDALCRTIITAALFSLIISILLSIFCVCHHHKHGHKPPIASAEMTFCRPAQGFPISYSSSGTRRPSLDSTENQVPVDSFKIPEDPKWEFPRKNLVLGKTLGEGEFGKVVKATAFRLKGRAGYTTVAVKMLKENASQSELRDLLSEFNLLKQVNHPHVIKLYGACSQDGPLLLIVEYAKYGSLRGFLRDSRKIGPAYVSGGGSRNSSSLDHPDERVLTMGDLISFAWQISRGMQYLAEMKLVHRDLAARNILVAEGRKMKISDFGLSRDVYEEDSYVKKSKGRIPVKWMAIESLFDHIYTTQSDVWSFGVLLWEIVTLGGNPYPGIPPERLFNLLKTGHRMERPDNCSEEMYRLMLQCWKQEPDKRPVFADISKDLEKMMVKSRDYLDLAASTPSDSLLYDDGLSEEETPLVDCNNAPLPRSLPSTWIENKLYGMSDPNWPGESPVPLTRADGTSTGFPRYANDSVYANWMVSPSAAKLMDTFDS
row,Binder,potency in the KIRA ELISA relative to wild-type NBN113 [fold less potent]
1,"4 × 10 kDa PEG NBN106-N95K (ligand, 10 kDa PEG on the amino terminus and on Lys95 of each chain (Table 8: 1, 1, 95, 95)) ARATDARGCRLRSQLVPVSALGLGHSSDELIRFRFCSGSCRRARSPHDLSLASLLGAGALRSPPGSRPISQPCCRPTRYEAVSFMDVKSTWRTVDHLSATACGCLG",~10

# Biological target: T1, c-Ret (RET receptor tyrosine kinase) on …
# Assay: cell-based or functional assay
# Remark: another data set of the same source
Binder,KIRA:~ EC50 [nM],KIRA:~ Max Efficacy vs WT [%]
"3 × 10 kDa PEG-WT/N95K-NBN106 (ligand, 10 kDa PEG on the amino terminus and on Lys95 (Table 8, for the dimer: 1, 1, 95); 10 kDa PEG on the amino terminus (Table 8, for the dimer: 1, 1, 95)) chain 1: ARATDARGCRLRSQLVPVSALGLGHSSDELIRFRFCSGSCRRARSPHDLSLASLLGAGALRSPPGSRPISQPCCRPTRYEAVSFMDVNSTWRTVDHLSATACGCLG chain 2: ARATDARGCRLRSQLVPVSALGLGHSSDELIRFRFCSGSCRRARSPHDLSLASLLGAGALRSPPGSRPISQPCCRPTRYEAVSFMDVKSTWRTVDHLSATACGCLG",~0.7,~115
"3(,4) × 10 kDa PEG NBN106-N95K (ligand, 10 kDa SPA-PEG at the amino termini and Lys95, average 3.3 PEG moieties per dimer (Table 8: 1, 1, 95 (,95)); mixture of 2, 3 and 4 PEG adducts) ARATDARGCRLRSQLVPVSALGLGHSSDELIRFRFCSGSCRRARSPHDLSLASLLGAGALRSPPGSRPISQPCCRPTRYEAVSFMDVKSTWRTVDHLSATACGCLG",~1.6,~90
"4 × 5 kDa PEG NBN106-N95K (ligand, 5 kDa PEG on the amino terminus and on Lys95 of each chain (Table 8: 1, 1, 95, 95)) ARATDARGCRLRSQLVPVSALGLGHSSDELIRFRFCSGSCRRARSPHDLSLASLLGAGALRSPPGSRPISQPCCRPTRYEAVSFMDVKSTWRTVDHLSATACGCLG",~1,~80
"4 × 10 kDa PEG NBN106-N95K (ligand, 10 kDa PEG on the amino terminus and on Lys95 of each chain (Table 8: 1, 1, 95, 95)) ARATDARGCRLRSQLVPVSALGLGHSSDELIRFRFCSGSCRRARSPHDLSLASLLGAGALRSPPGSRPISQPCCRPTRYEAVSFMDVKSTWRTVDHLSATACGCLG",~11,> 80
"3 × 10 kDa PEG NBN106-N95K (ligand, three 10 kDa PEG per dimer: both amino termini and one Lys95 (Table 8: 1, 1, 95)) ARATDARGCRLRSQLVPVSALGLGHSSDELIRFRFCSGSCRRARSPHDLSLASLLGAGALRSPPGSRPISQPCCRPTRYEAVSFMDVKSTWRTVDHLSATACGCLG",~0.8,~100
"2 × 10 kDa PEG-NBN (ligand, 10 kDa PEG on the amino-terminal amino acid of each chain (Table 8: 1, 1)) AGTRSSRARATDARGCRLRSQLVPVSALGLGHSSDELIRFRFCSGSCRRARSPHDLSLASLLGAGALRSPPGSRPISQPCCRPTRYEAVSFMDVNSTWRTVDHLSATACGCLG",~0.2,~72
wild-type rat neublastin NBN113 (E. coli derived) (ligand) AGTRSSRARATDARGCRLRSQLVPVSALGLGHSSDELIRFRFCSGSCRRARSPHDLSLASLLGAGALRSPPGSRPISQPCCRPTRYEAVSFMDVNSTWRTVDHLSATACGCLG,–,~100
"1 × 20 kDa Branched PEG-NBN (ligand, one 20 kDa branched PEG on the amino-terminal amino acid of one of the two chains (Table 8: 1)) AGTRSSRARATDARGCRLRSQLVPVSALGLGHSSDELIRFRFCSGSCRRARSPHDLSLASLLGAGALRSPPGSRPISQPCCRPTRYEAVSFMDVNSTWRTVDHLSATACGCLG",~0.2,~83
"2 × 5 kDa PEG-NBN (ligand, 5 kDa PEG on the amino-terminal amino acid of each chain (Table 8: PEGylated amino acids 1, 1)) AGTRSSRARATDARGCRLRSQLVPVSALGLGHSSDELIRFRFCSGSCRRARSPHDLSLASLLGAGALRSPPGSRPISQPCCRPTRYEAVSFMDVNSTWRTVDHLSATACGCLG",~0.2,~105
"2 × 20 kDa PEG-NBN (ligand, 20 kDa PEG on the amino-terminal amino acid of each chain (Table 8: 1, 1)) AGTRSSRARATDARGCRLRSQLVPVSALGLGHSSDELIRFRFCSGSCRRARSPHDLSLASLLGAGALRSPPGSRPISQPCCRPTRYEAVSFMDVNSTWRTVDHLSATACGCLG",~0.6,~80

# Biological target: c-Ret (RET receptor tyrosine kinase) on NB41A3-mRL3 cells (UniProt P35546)
# Assay: cell-based or functional assay
# c-Ret (RET receptor tyrosine kinase) on NB41A3-mRL3 cells (UniProt P35546), sequence (P35546 29-1115 limits assumed): as the sequence (P35546 29-1115 limits assumed) above
Binder,KIRA:~ EC50 [nM],KIRA:~ Max Efficacy vs WT [%]
"1 × 20 kDa PEG-NBN104 (CHO) (ligand, one 20 kDa PEG on the amino-terminal amino acid of one chain (Table 8: 1); glycosylated at amino acid 95 of each chain (95, 95)) AAGARGCRLRSQLVPVRALGLGHRSDELVRFRFCSGSCRRARSPHDLSLASLLGAGALRPPPGSRPVSQPCCRPTRYEAVSFMDVNSTWRTVDRLSATACGCLG",0.3,110
"NBN104 (CHO) (ligand, glycosylated at amino acid 95 of each chain (Table 8: 95, 95; numbering of SEQ ID NO:1)) AAGARGCRLRSQLVPVRALGLGHRSDELVRFRFCSGSCRRARSPHDLSLASLLGAGALRPPPGSRPVSQPCCRPTRYEAVSFMDVNSTWRTVDRLSATACGCLG",0.7,90
"2 × 20 kDa PEG-NBN104 (CHO) (ligand, 20 kDa PEG on the amino-terminal amino acid of each chain (Table 8: 1, 1); glycosylated at amino acid 95 of each chain (95, 95)) AAGARGCRLRSQLVPVRALGLGHRSDELVRFRFCSGSCRRARSPHDLSLASLLGAGALRPPPGSRPVSQPCCRPTRYEAVSFMDVNSTWRTVDRLSATACGCLG",1,105

# From patent publication US20080306212A1 (Biogen, published 2008)
